Test results from the nanobody polyreactivity screen of Harvey et al. (2022).

Test: yeast display, Sf9 membrane polyspecificity reagent, FACS + sequencing; frameworks hold sequencing errors
Method in brief: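 A nanobody's polyreactivity label depends on the gate it was sorted from. Yeast display cells were stained with 10% biotinylated, detergent-solubilized Sf9 membrane reagent for 1 hour at 4 °C, enriched on streptavidin microbeads and sorted by FACS. The low and high (top ~1%) gates were set on anti-HA fluorescence for expression and streptavidin fluorescence for reagent binding.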

Row | Sequence | polyreactivity (PSR sort gate)
1 | QVQLVESGGGLVQAGGSLRLSCAASGRILGYYAMGWYRQAPGKERELVAAISSGDSTNYADSVKGRFTISRDNAKNTVYLQMNSLKPEDTAVYYCAAKGWIWNPYNYWGQGTQVTVSS | low polyreactivity
2 | QEQLQESGGGQVQAGGSLLLSCAASGNIIRYYYMGWYRQAPGKERELVAAITYGTSTNDADSVKGRFTISRDNAKNTVYLQMNSLKPEDTAVYYCAVDVNYGDPLDNWGQGTQVTVSS | high polyreactivity
3 | QVQLVESGGGLVQAGGSLRLSCAASGRIFWYYAMGWYRQAPGKERELVAAITKSGGSTYYADSVKGRFTISRDYAKNTVYLQMNSLKPEDTAVYYCAAPTWTRSSFDYWGQGTQVTVSS | high polyreactivity
4 | QVQLVESGGGLVQAGGSLRLSCAASGRTFGGYAMGWYRQAPGKERELVAAISKRSGSTYYADSVKGRFTISRDNAKNTVYLQMNSLKPEDTAVYYCNKVWFQRSVQPVEYDYWGQGTQVTVSS | high polyreactivity
5 | QVQLVESGGGLVQAGGSFRLSCAASGRIFSPNAMGWYRQAPGKEREFVAAINDRGGNTYYADSVKGRFTISRDNAKNTVYLQMNSLKPEDTAVYYCAATVTVFYTRYYYWGQGTQVTVSS | high polyreactivity
6 | QVQLVESGGGLVQAGGSLRLSCAASGSTISFYAMGWYRQAPGKERELVAAISRSGGSTFYADSVKGRFTISRDNAKNTVYLQMNSLKPEDTAVYYCAAYGGMQSRYYYWGQGTQVTVSS | high polyreactivity
7 | QVQLVESGGGLVQAGGSLRLSCAASGRIFVYYTMGWYRPAPGKEREFVAAITRSGGRTYYADSVKGRFTISRDNAKNTVYLQMNSLKPEDTAVYYCNRDPTYLAYYIKYDSWGQGTQVTVSS | high polyreactivity
8 | QVQLVESGGGLVQAGGSLRLSCAASGSIFKSNGMGWNRQAPGKERELVAAITGSGGTTYYADSVKGRFTISRDYAKNTVYLQMNSLKPEDTAVYYCAAVNYYWGQGTQVTVSS | low polyreactivity
9 | QVQLVESGGGLVQAGGSLRLSCAASGSIFWRNAMGWYRQAPGKERELVAAISRVGSTNYADSVKGRFTISRDNAKNTVYLQMNSLKPQDTAVYYCAVDGGEFSSYGYWGQGTQVTVSS | low polyreactivity
10 | QVQLVESGGGLVQAGGSLRLSCAASGFTFAYYAMGWYRQAAGKERELVAAITVSGASTYYADSVKGRFTISRDNAKNTDYLQMNRLKPEETAVYYCARYYAIVSGYYDDGYWGQGTQVTVSS | high polyreactivity
11 | QVQLVESGGGLVQAGGSLRLSCAASGSIFRGYAMGWYRQATGKERELVATIDSSAGSTYYADSVKGRFTISRDNAKNTVYLQMHSLKPEDTAVYYCATDPYGYYYSGFDYWGQGTQVTVSS | low polyreactivity
12 | QVQLVESGGGLVQAGGSLRLSCAASGSIFVNNAMGLYRQAPGKERELVAAISSRSSRTFYADSVKGRFTISRDYAKNTVYLQMNSLKPEDTAVYYCAAELYGLKYGYYLSYDYWGQGTQVTVSS | high polyreactivity
13 | QVQLVESGGGLVQAGGSLRLSCAASGSIFSINAMVSYRQAPGKERELVAAISASGGSTYYADSVKGRFTISRDFAKITVYLHMNSLKPEDTAVFYCAAEGSPTGYDYWGQGTQVTVSS | low polyreactivity
14 | QVQLVESGGGLVQAGGSLRLSCAASGSIFVYNAMGWYRQAPGKERELVAAISWSGGRTYYADSVKGRFTISRDNAKNTVYIQMNSLKPEDTAVYYCAARGPTRVPYNYWGQGTQVTVSS | high polyreactivity
15 | QVQLVESGGGLVQAGGSLRLSCAASGRIFQYYVMGWYRQAPGKERELVAAITSGGGTKYADSVKGRFTISRDNAKNTVYLQMIRLKPEDTAVYYCAAAWFDQYSRYDYWGQCTQVTVSS | low polyreactivity
16 | QVQLVESGGGLVQAGGSLRLSCAASGRIFVGYAMGWYRQAPGKETELVAAISRDGDNTFYADSVKGRFTISRDNAKNTVYLQMNSLKPEDTAVYYCAVDYWVWYGSAYAYDYYWGQGTQVTVSS | low polyreactivity
17 | QVQLVESGGGLVQAGGSLRLSCAASGFTFYIYAMGWYRQAPGKERELVAGIDYSGGSTYYADSVKGRFTISRDNAKNTVYLQMNSLKPEDTAVYYCARYGPYQSSYHYDYWGQGTQVTVSS | high polyreactivity
18 | QVQLVESGGVLVQAGGSLRLICAASGSTFEFYAMGWYRQEPGKERELVARITWNGGNTYADSVKGRYTISRDNAKNNVYLQMNSLKPEDTSVYYCATDYVVGFYYWGQGTQVTVSS | low polyreactivity
19 | QVQLVESGGGLVQAGGSLRLSCAASGSTFKKNAMGWYRQAPGKERELVAAISKRGGRTYYADSVKGRFTISRDNAKNTVYLQMNSLKPEDTAVYYCNAGQQHFDEEEYDYWGQGTQVTVSS | high polyreactivity
20 | QVQLVESGGGLVQAGGSLRLSCAASGFIFSKNAMGWSRQAPGKERELVAAISYSGGSTYYADSVKGRFTISRDNAKNTVYLQMNSLKPEDTAVNYCAAGGIYAPSSEYDSWGQGTQVTVSS | low polyreactivity
21 | QVQLVESGGGLVQAGGSLRVSCAASGRTFGYNAMGWYRQAPGKERELVATISWGGGSTYYADSVKVRFTISRDNAKNTVYLQMNSLKPEDTAVYYCAATYWTYPYHYQYKYDYWGQGTQVTVSS | high polyreactivity
22 | QVQLVESWGGLVQAGCSLRISCAASGSTLYSYAMGWNIQAPGKERELVAAINSGSNTYYADSVKGRFTISRDNAKNTVYLQMNSLKPEDTAVYYCAAKGIIYTGYDGARRAYGYWGQGTQVTVSS | high polyreactivity

Row | Sequence | polyreactivity (PSR sort gate)
23 | QVQLVESGGGLVQAGGSLRLSCAASGRTFSQYAMGWYRQAPGKERELVAAITSAGSTYYADSVKGRFTISRDNAKNTVYLQMKSLKPEDTAVYYCNARGPSRYTGYSSYYWGQGTQVTVSS | high polyreactivity
24 | QVQLVESGGGLVQAGGSLRLSCAASGRIFSLYAMGWYRQAPGKERELVAVITYRGGDSTYYADSVKGRFTISRDNAKNTVYLQMNSLKPEDTAVYYCAAGQPLYQRRHSSRTYYYWGQGTQVTVSS | high polyreactivity
25 | QVQLVESGGGLVQAGVSLRLSCAASARIFSGYAMGWYRQAPGKEREFVAAITSSGRTKYADSVKGRFTISRDNATNTVYLQMNSLKPEDTAVYYCAAYFGYDWPEYDYWRQGTQVTVSS | high polyreactivity
26 | KVQLVESGAGLVQAGGSLRLSCAASGITFGWYAMGWYRQAPGKERELVATINSGGSTNYADSVKGRFTISRDNAQNSVYLQMNSLKAEDTAVYYCAADGLIRWYDYWGQGTQVTVSS | low polyreactivity
27 | QVQLVESGGGLVQAGGSLRLSCAASGSTFWYNTMGWYRQAPGKERELVAAITSSGGSTYYADSVKGRFTISRDNAKNTVYLQMNSLKPEDTAVYYCNALHTRTGVKARYYYWGQGTQVTVSS | high polyreactivity
28 | QVQLVESGGGLVQAGGSLRLSCAASGSIFRGKAMGWSRQAPGKERELVAGINRAGSTKYADSVKGRFTISRDNAKNTVYLQMNSLKPEDTAVYYCAAVRYERGLWSDYWGLGTQVTVSS | high polyreactivity
29 | QVQLVESGGGLVQAGGSLRLSCAASGRIFHYYAMGWYRQAPGKERELVAAISNTDGSTYYADSVKGRFTISRDNAKYTVYLQMNSLKPEDTAVYYCAADSLGALYRGNYPYGYWGQGTQVNVSS | high polyreactivity
30 | QVQLVESGGGLVQAGGSLRLSCAASGRIFNEYGMGWYRQAPGKERELVAAITWGGGSTYYADSVKGRFTISRDNAKNTVYVQMNSLKPEDTAVYYCNAVSERPIPWYYYWGQGTQVTVSS | low polyreactivity
31 | QVQLVESGGGLVQAGGSLRLSCAASGITFVPYAMGWYRQAPGKERELVAAISSSGGSTYYADSVKGRFTISRDNAKNTVYLQMNSLKPEDTAVYYCNVRTHSYIGMDYWGQGTQVTVSS | low polyreactivity
32 | QVQLVESGGGLVQAGGSLRLSCAASGSIFPYYAMGWYRQAPGKEREFVASISSVTSTYADSVKGRFTISRDNAKNTVYLQMNSLKPEDTAVYYCAADRAYSWYSVSRYNYWGQGTQVTVSS | low polyreactivity
33 | QVQLVESGGGLVQAGGSLRLSCAASGRTFGSYAMGWYRQAPGKERELVAAISRSGTNTYYADSVKGRFTISRDNAKNTVYLQMNSLKPEDTAVYYCATDFYFSSVLVWFSYGYWGQGTQVTVSS | low polyreactivity
34 | QVQLLESGGRLVQAGGSLRLSCAASGFTFGVNAMGWYRQAPGKERELVAAITSRGGSTYYADSVKGRFTISRDNAKNTVYLQMNSLKPEDTAVYYCAALGRGYFYGYRYDHWGQGTQVSVSS | high polyreactivity
35 | QVQLVESGGGLVQAGGSLRLSCAASGLTFRAYVMGWYRQAPGKERELVAAISVSGGSTYYADSVKGRFTISRDNAKNTVYLQMNSLKPEDTAVYYCAAAAKSWLFDYWGQGTQVTVSS | high polyreactivity
36 | QVQLVESGGGLVQAGGSLRLSCAASGLTFSRYAMGWYRQAPGKERELVAAISSSGTRTYYADSVKGRFTISPDNPKNTVYLQMNSLKPEDTAVYYCNAYYAPRGYGYWGQGTQVTVSS | high polyreactivity
37 | QVQLVESGGGLVQAGGSLRLSCAASGSTFFGYTMGWYRQARGKERELVAAITRRGGSTYYADSVKGRFTISRDNAKNTVYLQLNSLKPEDTAVYYCNAVSKSTNYAGRYDYWGQATQVTVSS | high polyreactivity
38 | QVQLVESGGGLVQAGGSLRLSCAASGSTFQFYAMGWYRQAPGKERELVAAIRSSDDSTYYADSVKGRFTSSRDNAKNTVYLQMNSLKPEDTAVYYCAAVQDYYGVWYDYWGQGTQVTVSS | high polyreactivity
39 | QVQLVESGGGLVQAGGSLRLSCADSGRIFTSYVMGWYRPAPGQERELVAAITRSGGSTYYADSVKGRFTNSRDNAKNTVYLQMNSLKPEDTAVYYCIALTRRQKGGEGGGYWGQGTQVTVSS | high polyreactivity
40 | QVQLVESGGGLVQAGGSLRLSCAASGRTFWWYAMGWYRQAPGKERELVATINVSGGSTYYADSVKGRFTISRDNAKNTVYFQINSLKPEDTAVYYCNKRGFYTPSVSYDYWGQGTQVTVSS | low polyreactivity
41 | QVQLVESGGGLVQAGGSLRLSCAASGNTFTWYTMGWYRQAPGKERELVAVITSDGSTYYADSVKGRFTISRDNAKNTVYLQMNRLKPEDTAVYYCNALSADWYPEEDYWGQGTQVTVSS | low polyreactivity
42 | QVQLVESGGGLVQAGGSLRLTCAASGRIYTYNAMGRYRKAPGKERELVATITWRGGGTYYADSVKGRFTISRDNAKNTVYLQMNSLKPEDTAVYYCIRRLPGDGQYGYRRFDYWGQGTQVTVSS | low polyreactivity
43 | QVQLVESGGGLVQAGGSLRLSCAASGITFFPYAMGWYRQAPGKERELVASISDGGGTNYADSVKGRFTISRDNAKNTVYFQMNSLKPEDTAVYYCATDASTYAYYGGDYWGQGTQVTVSS | low polyreactivity
